Experimental data as given in the supplement of paper PMC11780869.

Tested on: Bacillus subtilis
Test: cleaved RNA product abundance (RNA/gDNA barcode ratio) relative to median wild-type variant (ratio to wild type); higher = more accumulation of the downstream cleavage product
Details: cleavage site: cggR-gapA (positions -7 to +36 mutated)
Protocol: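 MPRA in B. subtilis. Mutagenized RNase Y cleavage-site regions (9% mutation rate) were inserted into a barcoded reporter mRNA (truncated aprE or tetM). Cells were grown in LB at 37°C to OD600 0.3. The cleaved RNA isoform was gel-purified and its barcodes counted; the RNA:gDNA barcode ratio was normalised to the median wild-type variant, and the median over barcodes is reported per variant. The printed sequence is the variable window only; the reporter flanks are not printed.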

[1] = experiment (reporter, strain, medium): exp 2b: truncated aprE reporter, strain BJT200
[2] = experiment (reporter, strain, medium): exp 4a: truncated aprE reporter, strain BJT201 with 2% xylose (RNase J1 expressed)
[3] = experiment (reporter, strain, medium): exp 6: tetM reporter, strain 168

Sequence | cleaved RNA product abundance [1] | cleaved RNA product abundance [2] | cleaved RNA product abundance [3]
ACAGACGAAGGAGCCGCAAACAAGTTATTAAGCGATGAATAATCCCTCAATATAAATATCTCTCACTTATTTAAA | 0.0729 | 0.0647 | –
ACAGACGAAGGAGCCGCAAACAAGTTATTAAGGAATGAATAATCCCTCAATATAAATATCTCTCACTTATTTAAA | 0.115 | 0.123 | 0.139
ACAGACGAAGGAGCCGCAAACAAGTTATTAAGGGAAGAATAATCCCTCAATATAAATATCTCTCACTTATTTAAA | – | 0.558 | –
ACAGACGAAGGAGCCGCAAACAAGTTATTAAGGGACGAATAATCCCTCAATATAAATATCTCTCACTTATTTAAA | – | 0.279 | –
ACAGACGAAGGAGCCGCAAACAAGTTATTAAGGGATAAATAATCCCTCAATATAAATATCTCTCACTTATTTAAA | – | 0.649 | –
ACAGACGAAGGAGCCGCAAACAAGTTATTAAGGGATCAATAATCCCTCAATATAAATATCTCTCACTTATTTAAA | – | 0.443 | –
ACAGACGAAGGAGCCGCAAACAAGTTATTAAGGGATGAAAAATCCCTCAATATAAATATCTCTCACTTATTTAAA | – | 0.359 | –
ACAGACGAAGGAGCCGCAAACAAGTTATTAAGGGATGAACAATCCCTCAATATAAATATCTCTCACTTATTTAAA | – | 0.451 | –
ACAGACGAAGGAGCCGCAAACAAGTTATTAAGGGATGAATAAACCCTCAATATAAATATCTCTCACTTATTTAAA | 0.29 | 0.38 | –
ACAGACGAAGGAGCCGCAAACAAGTTATTAAGGGATGAATAATACCTCAATATAAATATCTCTCACTTATTTAAA | 0.107 | 0.12 | –
ACAGACGAAGGAGCCGCAAACAAGTTATTAAGGGATGAATAATCACTCAATATAAATATCTCTCACTTATTTAAA | – | 0.127 | –
ACAGACGAAGGAGCCGCAAACAAGTTATTAAGGGATGAATAATCCATCAATATAAATATCTCTCACTTATTTAAA | 0.182 | 0.192 | –
ACAGACGAAGGAGCCGCAAACAAGTTATTAAGGGATGAATAATCCCACAATATAAATATCTCTCACTTATTTAAA | 0.109 | 0.255 | –
ACAGACGAAGGAGCCGCAAACAAGTTATTAAGGGATGAATAATCCCCCAATATAAATATCTCTCACTTATTTAAA | – | 0.137 | –
ACAGACGAAGGAGCCGCAAACAAGTTATTAAGGGATGAATAATCCCTAAATATAAATATCTCTCACTTATTTAAA | – | 0.47 | –
ACAGACGAAGGAGCCGCAAACAAGTTATTAAGGGATGAATAATCCCTCAAAATAAATATCTCTCACTTATTTAAA | 0.194 | 0.257 | –
ACAGACGAAGGAGCCGCAAACAAGTTATTAAGGGATGAATAATCCCTCAACATAAATATCTCTCACTTATTTAAA | – | 0.25 | –
ACAGACGAAGGAGCCGCAAACAAGTTATTAAGGGATGAATAATCCCTCAAGATAAATATCTCTCACTTATTTAAA | 0.17 | – | –
ACAGACGAAGGAGCCGCAAACAAGTTATTAAGGGATGAATAATCCCTCAATAAAAATATCTCTCACTTATTTAAA | – | 0.1 | –
ACAGACGAAGGAGCCGCAAACAAGTTATTAAGGGATGAATAATCCCTCAATATAAATAACTCTCACTTATTTAAA | 0.576 | – | –
ACAGACGAAGGAGCCGCAAACAAGTTATTAAGGGATGAATAATCCCTCAATATAAATATCTCTCACTTATTTAAA | 0.78 | 0.738 | 0.707
ACAGACGAAGGAGCCGCAAACAAGTTATTAAGGGATGAATAATCCCTCAATATAAATTTCTCTCACTTATTTAAA | – | 0.298 | –
ACAGACGAAGGAGCCGCAAACAAGTTATTAAGGGATGAATAATCCCTCAATATAACTATCTCTCACTTATTTAAA | – | 0.0791 | –
ACAGACGAAGGAGCCGCAAACAAGTTATTAAGGGATGAATAATCCCTCAATATACATATCTCTCACTTATTTAAA | 0.644 | 0.536 | –
ACAGACGAAGGAGCCGCAAACAAGTTATTAAGGGATGAATAATCCCTCAATATTAATATCTCTCACTTATTTAAA | 0.12 | – | –
ACAGACGAAGGAGCCGCAAACAAGTTATTAAGGGATGAATAATCCCTCATTATAAATATCTCTCACTTATTTAAA | – | 0.337 | –
ACAGACGAAGGAGCCGCAAACAAGTTATTAAGGGATGAATAATCCCTCCATATAAATATCTCTCACTTATTTAAA | – | 0.207 | –
ACAGACGAAGGAGCCGCAAACAAGTTATTAAGGGATGAATAATCCCTCTATATAAATATCTCTCACTTATTTAAA | – | 0.46 | –
ACAGACGAAGGAGCCGCAAACAAGTTATTAAGGGATGAATAATCCCTGAATATAAATATCTCTCACTTATTTAAA | – | 0.455 | –
ACAGACGAAGGAGCCGCAAACAAGTTATTAAGGGATGAATAATCCCTTAATATAAATATCTCTCACTTATTTAAA | – | 0.287 | –
